Measured values from article doi:10.1101/718072.
Like-named read-outs stand apart in the source and are kept apart here.

How the values were obtained:
[1] = target: FliF (flagellar MS-ring protein) from Salmonella enterica serovar Typhimurium (Salmonella enterica serovar Typhimurium) (UniProt P15928); assay: cryo-EM structure
[2] = target: FliF (flagellar MS-ring protein) from Salmonella enterica serovar Typhimurium (Salmonella enterica serovar Typhimurium) (UniProt P15928); assay: cryo-EM structure; remark: listed apart in the source

## FliF (flagellar MS-ring protein) from Salmonella enterica serovar Typhimurium (from UniProt P15928 1-560) (natural protein)
[1]
  stoichiometry N: 34
[2]
  stoichiometry N: 33
